Test results as given in the domain aggregation screens of Martell et al. (2025).

Assay: soluble fraction after stress (log2 fold change); higher = more stays soluble; pooled small domains, quantitative proteomics
Settings: stress: pH 4
Outline: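 After pH 4 stress, pooled custom libraries of small protein domains were quantified with high-throughput quantitative proteomics. Aggregation propensity is taken from the fold change in each domain's soluble amount following the acid stress. The scale is log2, where higher values mean more stayed soluble.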

Sequence: HMGAKEHLAGETLRMAVELLSEKQGIPAEQALIRFISSPVYDALYDLDTGMWTQGPTRLLEAFEALE
- soluble fraction (log2): -1.69

Sequence: HMGALARLLASVEQELGVTRDRMTRTQKQEAVTLLNEWGAFTLRKSVEDVAEALGVSRFTVYNYLERAEA
- soluble fraction (log2): -0.866

Sequence: HMGALSLDMLFDRFDALQEQSMGDKTEGGQELRGMIRTFIEQEKLDIRVTRTTTNAALLEMIEKEMQG
- soluble fraction (log2): 0.0204

Sequence: HMGASALTEREREVLRLLEGGGSDKRIARQLAISEHGVRYHLKSIYKKLGVHDRVSAIAAGRRLAS
- soluble fraction (log2): ≥ 0.43

Sequence: HMGASTQLVEIKNAYENGEWQNVIDLAGKLHEKYNGSEEDKEAQEMAKNSQSKLDEAAAAKAAEEA
- soluble fraction (log2): 0.184

Sequence: HMGASYSQFLDQVDSGNVQKVAFGGDMRGGTSQLTYTTRGGQSSTITAPFDRDLINVLRTKNVEIVQEEP
- soluble fraction (log2): 0.0587

Sequence: HMGATFITSSKDNAINIRQAAGTDSKVIETIKNGHILESSEKSGEWYKVTYYDSDIKKTFTGYIHNSQLK
- soluble fraction (log2): -0.162

Sequence: HMGAVQFAEQKIHIGSRWIGKKISEFSAESDAFVILIKRGSEVVIPRGPTDIVENDVLVIHVPD
- soluble fraction (log2): -1.8

Sequence: HMGAVVSPMPGVILDIKVKEGDSVSEGQTVIILEAMKMENEIVSEFTGTVSAIRVKKGDTVDTDAVLVEI
- soluble fraction (log2): -1.04

Sequence: HMGAYPENSLLKERGQSAVYLIQENRKRLFFNAEAFLINGYNWKDIQVVDDLSKILTGKVIYAK
- soluble fraction (log2): -1.48

Sequence: HMGDAATVFRDHYNINSAAQAQAALDRKEALWEQPNPWRDSDNREVFDWAAQTVKDRFDSGKYKPK
- soluble fraction (log2): -0.107

Sequence: HMGDDVRKNILDVLSKFERVDITDLDSLELVRFYLEIEDIFDIEIKENDFYRLKSVDSIVDYIRNKSFF
- soluble fraction (log2): -1.64

Sequence: HMGDIQFMEYRINHSSGWIGKNISDFAAVSKNLVILIKRGQDVVIPRGPTAIMEDDVLVLHA
- soluble fraction (log2): -1.15

Sequence: HMGDITALMPGKVIQIIVKEGQEIKVGDPLIVIESMKMENTISSEVNGTIKSINIQIDDNVQFDQVLFTV
- soluble fraction (log2): -1.03

Sequence: HMGDITIPDLQGMSFDQAREKLKALGLSIGKISYTSDTSKDDGVVISQGLQAGGKASKGATVDITINET
- soluble fraction (log2): -0.177

Sequence: HMGDLEEAVKDFSEAIRLNDSWAEAYANRAVVYAEQGDAAQSDQDAEKARLLGVDQNRLNEMLNAVNS
- soluble fraction (log2): -0.21

Sequence: HMGDLKALMPGKVTQVLVSGGQKVKVGEPVLLMESMKMEQTIVATKDGDISEILVSEGDTVEVGKIMIKI
- soluble fraction (log2): 0.0925

Sequence: HMGDLTVPDLSGLTVDQAKQRLKDMGLVLGKITTQEDSSKPDGVIISQSPSADGKINKGQLVDVVVNKLS
- soluble fraction (log2): 0.206

Sequence: HMGDTHKVPGVKGVNVEQAMDMLSRLDLKAVVIDSVYVKDKKLGTVIEQNPVEGSVVKPGRPIYLVVNSRS
- soluble fraction (log2): -0.0241

Sequence: HMGDTISVPAVRTLAYNKAMDILNAEGLKGIVADSVYDNHTAPGTVIEQNPKAGTIVKEGREVFLTIHA
- soluble fraction (log2): -0.0483

Sequence: HMGDWITGTVTRIADNGWGTFQPENAHNTVSIPPKMVADNQLKEADSIKIIAEPSPDGTKTFIKAISRE
- soluble fraction (log2): 0.214

Sequence: HMGEDSEPVQVPDVTGQPLWEARRTLSSMGLKVLDDGGSGSVTAQMPSAGATLRNGGQMMLYTYDEALPE
- soluble fraction (log2): 0.033

Sequence: HMGEEIRTWTDAQGRKIEARMSMLDGDQVLLELKDGRKIPYPLAKLSADDAHYARHFASASASD
- soluble fraction (log2): -0.00959

Sequence: HMGEFVQLKNRTGSVIEAKILNYQNGKVKLQRKDGVIFVVPISIFDRMSSSIIENKAKEMDSF
- soluble fraction (log2): 0.255

Sequence: HMGEIHAQIPGLVSHLFVKEGNTVQVEQKLFILEAMKMENEIDSPIQGTVKRIHIATGSKVEKGDLIMEIS
- soluble fraction (log2): -0.117

Sequence: HMGEKFTFGQIAKAKAYAKTYANDMTSAVKNIEAIATGLSKHPEVADTLKKANENQELNRITKLAG
- soluble fraction (log2): 0.369

Sequence: HMGEKPTEITLSNAISVQELAEKLYVSETDIIRTLFLDGIIVNINQVLDLETAVKVGDQLGVTITIVE
- soluble fraction (log2): -1.8

Sequence: HMGEKTVPNVIGQKLATAKQLLEKEGLTVGSTSYNKNQADKDTVLSTDPAPGSHLSEGAKVNLTLSSGA
- soluble fraction (log2): 0.0205

Sequence: HMGEKVIAVSGGFDPIHVGHLRMMQDAAQHGRLVVIVNSDEWLLKKKGYVFMPWEERAELIGAYDFVDE
- soluble fraction (log2): -0.6

Sequence: HMGELDPKIIAQINTFLQGITKLIEHPGNKDAKKTALGALHKLTFDQNITANFGKQLGQLDQVIQSSEET
- soluble fraction (log2): -0.127

Sequence: HMGELGPGSRGQAVRALQERLMALGFPLARFGADGIFGRETTGALRAFQHVAGLSPTGLGDHETLKWLGII
- soluble fraction (log2): -0.351

Sequence: HMGELTNALATLSERERDVARLVAQGLDNRQIAAQLFLSEGTVRNRISDILDKLALTNRTQLAIAWLHAE
- soluble fraction (log2): -0.615

Sequence: HMGEPTLTIRVVSYNPQSGEMVVVARDPLSGRYALATLNVRTGAGQMIGPQGELLPIENFALGS
- soluble fraction (log2): -0.692

Sequence: HMGEQVAVPDVTKKSVREVNNILTSAGLRLQIEGSGISVRQDPPADTMVAPDTVVTVSFEPP
- soluble fraction (log2): -0.0261

Sequence: HMGEQVFSRKDLAINGNDLKAVFGWPPGPKYREALDQLFHWVLEDPARNRRETLLAYLHSLYD
- soluble fraction (log2): -0.774

Sequence: HMGESEKTLELVSQKDALVDEAFFFVRFQALLESNKTKGAQDLLDQSNHLSAAKLLQANAYLDIV
- soluble fraction (log2): 0.038

Sequence: HMGESFEELAREISDDTGSKTEGGETGLFPRGVMAPQFEEAAFLLKVGDISEPIRTKFGYHIIKLKEIKP
- soluble fraction (log2): -0.0823

Sequence: HMGESVVVPDLRGKTLEEARAILKKVDLDYEINDSTYSKTAVPGTIRDIVPAPGSHVKAGRILFVSING
- soluble fraction (log2): 0.0395

Sequence: HMGETISVPAVRSLAYDRAVDMLTAEGLKGIVADSVYDNRTQPGTVIEQNPKAGTIVKEGREVYLTINA
- soluble fraction (log2): 0.0278

Sequence: HMGFAPEAAREEVAQLIGQRGRAVTVLRPSGQVEIAGRRFEATVEVGAVDAGDTIVVRGQTAFALLVEKAD
- soluble fraction (log2): 0.0812

Sequence: HMGFKLQRYTTFVVERLKKYQDTPAAQMHDLLKEHYPDFPAVSPKTVYNYVMKIRQEHGLPAV
- soluble fraction (log2): ≥ 0.43

Sequence: HMGFSERLAQAMSHAGYTQGGLAKAVGMAQSSVNKLLNNANSSRKTVEIASVLGVRPEWLSTGEGDML
- soluble fraction (log2): 0.188

Sequence: HMGFSKGKRDLIRMIKLAIRELADDNGRAQIEDVITRLVQEGHSRDEIRLQIDMFLRQGEAMEPKQGIIKL
- soluble fraction (log2): -0.891

Sequence: HMGFSLEQFGTDPDLKKIVENAFERIITASEGRIFKSDFSSNNSALPLEIFSFLIAVILLKLSGMN
- soluble fraction (log2): -0.489

Sequence: HMGFVATRSRKFLPFSEARAITRGLGFSNQKDYKEWIKGNGNELLLPFNPWRTYGDSGWKGWKDFLGTDKA
- soluble fraction (log2): 0.0101

Sequence: HMGFYDLFINLADKVGSLADVTQILAEARINLVNVHILEIREEIDGIAQLTFSSEKDRQKALELLKTKYK
- soluble fraction (log2): -1.52

Sequence: HMGGDFVEHLKDLASEAPVIRLVNTIIGRVIDLRASDIHLEPFDDGLHVRYRVDGVIHPGELVPPRLS
- soluble fraction (log2): -0.249

Sequence: HMGGEGQIEIREREGIPAEAWVDGVMRGQTPLRVEHVSIGTRRVELRAEGRPPVAADVLVRPTVTALVELS
- soluble fraction (log2): -0.192

Sequence: HMGGEHPIPEDWAVNEANYEHGAKFYGYTRAHVDAEAQAFRDQYAANGKKYVDWDAHFRTFMRWQNERRYG
- soluble fraction (log2): -0.416

Sequence: HMGGEPVSARVPDTLHGARLDATAAALFPDFSRSRLAEWIKAGRLRRNDQPAKPRDKVAVDDHLLLIPEY
- soluble fraction (log2): -0.431

Sequence: HMGGFSVTAEAFDGTPEVGKTVGFTAGSTKIKVEDTKGDATFGTILEKETVGFGEGKYTYFYIGL
- soluble fraction (log2): -0.276

Sequence: HMGGKAITGGEGEIIIRADKAETVAIYGIDGRLVHRVSTEAGDTKRVSVPAGIYIVKGAKVVV
- soluble fraction (log2): 0.42

Sequence: HMGGKTAVVTGSLVNVRKGPGTGNALVGQVARGDELPVLGQDGDWYQIKLANGSNGWVAGWLVSLKDAVP
- soluble fraction (log2): -0.112

Sequence: HMGGLIDQSIQEIIDKYSVPGKKIQKAQRLKIVAEMHTKGIFKMRGGVQQAAQALGVTRYTVYNDLEVMN
- soluble fraction (log2): -0.259

Sequence: HMGGLLSVIQKKAINNVKDRYSENAIKSMTKVQLHDLIKAETSRLLDPANAKETPEYQAFLEE
- soluble fraction (log2): 0.116

Sequence: HMGGLSAEQKNGIQSVLKNFDPKNLTSADAKSITSEFKKLGVQPGKDLETTMAASGFDAKEVGRLAF
- soluble fraction (log2): 0.177

Sequence: HMGGPRDVPYSTFLIEVEKGQVAEVTIQDHKITGTYKNSNEPFITNAPDDPDLVSRLIKYGVGVQAKPPE
- soluble fraction (log2): 0.0182

Sequence: HMGGREEAGTDIARLLGYINDIHGEELIAKLEYYQKMLGSENFAVLMSRLPDGQKKELREQNLYSEYV
- soluble fraction (log2): -0.298

Sequence: HMGGRRHANMSREEEAAFLAPFFEKAAQGGILVVREIRQALDAHLGRTVPLSTVYNLLHRHNWRKL
- soluble fraction (log2): 0.379

Sequence: HMGGRTITVGISENMTVKDIAQMLEEKGLIEDARLFVVQELLSAYHKEIKPGIYDLSTDMTAAQMLEIMS
- soluble fraction (log2): -1.32

Sequence: HMGGSIDITTAPPGAKIYLDADYYGKTPKRLENISAGTYRLHLLHPEKGEVYRSVTLNEKNGTLKIDENLN
- soluble fraction (log2): 0.0705

Sequence: HMGGTATDYYNQGRTAYDVGDYNGALMNFQEAVRLDPRYGEAYYGLGKAYEALNMQNQALDAYLSAI
- soluble fraction (log2): -1.46

Sequence: HMGGVSTDKPLNWDADGTSKLTQEQIDYLRSTYDLSDMSKQDYYDLMADLTNMNAISIKDVISQYVK
- soluble fraction (log2): -0.462

Sequence: HMGGYVVVGDKDGFWSVVSTPVSKAKAEELLKDTTFPKGEKGKIVSVAEAMSHKKVIGKEYLESGGT
- soluble fraction (log2): 0.0926

Sequence: HMGHASPGNREALQFALERHQARAAEFAEKAGLSIANASTKFKQLWEQGFLMRNESVADSGGVEFLYQR
- soluble fraction (log2): -0.0683

Sequence: HMGHEISLNNSRFLKLLNKTKISISNDDTRHYLNGIFLHLTEAHGRQFLTGVATDSHRLSSSSLEID
- soluble fraction (log2): -0.226

Sequence: HMGHRQRRARARNRSMLEDIPGLGPKRRQQLLRQFGGLPQLMRAGVAELSQVPGISDSLARKIHAELHPES
- soluble fraction (log2): -1.87

Sequence: HMGHYGQMTRDLIEKAKTYEEGEEKAALVLTIANLMKRHYLTWNRATVENTLIAEQLKEMSEGALTLPEDV
- soluble fraction (log2): -0.962

Sequence: HMGIAEGSSVFVRVLAAEDGGRYTVSFAGRRFSVLSRQALGIGSAFRADVKVEKGQVLLVPR
- soluble fraction (log2): -0.348

Sequence: HMGIAERKEKQKLEIRNAILEASRKLIVEEGFEKVTMRKIADLIEYSPTTVYLYFKDKNEILFHLHQ
- soluble fraction (log2): -0.798

Sequence: HMGIDVSAFSDTALEVLRLQAAGYTTREIAQQLHITQRTVKYHASENYRKLDARNLVDAVQIAQSLHI
- soluble fraction (log2): -0.602

Sequence: HMGIEIKLLMSFMTDSGRKVSLFVTDPREDVTETEIKQVMDLIIEKNIFAPNGEDIVSAKEAKIVQT
- soluble fraction (log2): -1.2

Sequence: HMGIERTNADTSFSVNVYGKELIITSNKPLVVNIYAIDGTLVRTEQVTIGVNTVSGLPSGIYVVGQQKVVI
- soluble fraction (log2): -0.752

Sequence: HMGIIVDMSKIKQMLQLSEAGHSNRKIALELGINKETVNNYMQLIRNGRLDIRQLLKMDDPELERRFHA
- soluble fraction (log2): 0.23

Sequence: HMGIKLSDRQMQIVEIVKSQQPITSEQVAERLNLTRAALRSDLSILTMAGILEARPKVGYSLTGR
- soluble fraction (log2): 0.14
